From article doi:10.1101/2022.10.04.510915

Columns and labels:
[1] = target: JetB (E. coli GF4-3), as subunit of the JetABC complex (E. coli strain GF4-3); assay: cryo-EM structure
[2] = target: JetC (E. coli GF4-3), as subunit of the JetABC complex (E. coli strain GF4-3); assay: cryo-EM structure

## JetB (E. coli GF4-3), as subunit of the JetABC complex (natural protein)
[1]
  stoichiometry N: 2

## JetC (E. coli GF4-3), as subunit of the JetABC complex (natural protein)
[2]
  stoichiometry N: 2
